The target of one assay is CEA (UniProt P06731). In words: SE-HPLC of 125I-TF2 mixed with a 20-fold molar excess of CEA.
Assay [1] deals with recombinant human RIIalpha (commercial sample) (human) (UniProt P13861). In words: equilibrium SE-HPLC.

One may read the Kd as the constant that tells how readily two partners part at equilibrium.

CEA, sequence (P06731 35-685 limits assumed): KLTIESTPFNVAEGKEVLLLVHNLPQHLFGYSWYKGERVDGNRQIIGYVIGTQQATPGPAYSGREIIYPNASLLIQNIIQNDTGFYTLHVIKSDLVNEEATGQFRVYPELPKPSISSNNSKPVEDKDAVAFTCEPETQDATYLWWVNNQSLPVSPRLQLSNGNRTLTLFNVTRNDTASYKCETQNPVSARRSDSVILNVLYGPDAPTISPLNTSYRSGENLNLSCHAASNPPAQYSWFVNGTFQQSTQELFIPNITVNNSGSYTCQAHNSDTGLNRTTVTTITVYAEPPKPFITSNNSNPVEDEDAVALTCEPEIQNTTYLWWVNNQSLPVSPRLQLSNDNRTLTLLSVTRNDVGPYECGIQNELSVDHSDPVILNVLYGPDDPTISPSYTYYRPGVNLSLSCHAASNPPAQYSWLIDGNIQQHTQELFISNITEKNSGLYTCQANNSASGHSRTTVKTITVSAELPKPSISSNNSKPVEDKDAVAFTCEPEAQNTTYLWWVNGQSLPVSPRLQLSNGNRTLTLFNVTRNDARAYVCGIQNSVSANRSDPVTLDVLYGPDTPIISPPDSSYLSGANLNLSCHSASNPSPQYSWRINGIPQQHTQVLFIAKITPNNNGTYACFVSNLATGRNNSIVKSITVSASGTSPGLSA
recombinant human RIIalpha (commercial sample) (human), sequence (P13861 whole entry): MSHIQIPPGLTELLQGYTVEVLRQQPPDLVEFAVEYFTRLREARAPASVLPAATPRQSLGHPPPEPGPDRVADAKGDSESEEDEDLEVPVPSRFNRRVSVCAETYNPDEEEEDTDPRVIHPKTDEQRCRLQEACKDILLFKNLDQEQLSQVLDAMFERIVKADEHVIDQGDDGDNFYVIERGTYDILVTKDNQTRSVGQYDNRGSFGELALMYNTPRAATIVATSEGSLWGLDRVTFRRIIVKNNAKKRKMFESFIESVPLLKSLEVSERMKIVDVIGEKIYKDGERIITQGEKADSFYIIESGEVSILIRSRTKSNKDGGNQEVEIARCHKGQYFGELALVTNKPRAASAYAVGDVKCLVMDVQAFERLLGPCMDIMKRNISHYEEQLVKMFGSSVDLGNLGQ

Regarding TF2 (bispecific antibody), the percent of labeled TF2 shifted to a high molecular weight species in the assay with CEA was 95%.

With PKSCGGGGSGGGGSGGGGSQIEYLAKQIVDNAIQQA (Fab, part only; not given: h679 Fd and light chain, part only) [h679-Fab-AD1], the equilibrium dissociation constant (Kd) in assay [1] came to 30 nM.

The record behind these values is patent US20090269277A1.
